Data from patent publication US20210277102A1, “COMPOSITIONS AND METHODS FOR TREATING A TUMOR SUPPRESSOR DEFICIENT CANCER” (BETH ISRAEL DEACONESS MEDICAL CENTER, INC., priority 2016, published 2021).

Key:
GPR35 [1] = molecular target: T1, GPR35 (Homo sapiens, UniProt Q9HC97); settings: in vitro; cited from earlier work
Target sequence in this assay (Q9HC97 whole entry): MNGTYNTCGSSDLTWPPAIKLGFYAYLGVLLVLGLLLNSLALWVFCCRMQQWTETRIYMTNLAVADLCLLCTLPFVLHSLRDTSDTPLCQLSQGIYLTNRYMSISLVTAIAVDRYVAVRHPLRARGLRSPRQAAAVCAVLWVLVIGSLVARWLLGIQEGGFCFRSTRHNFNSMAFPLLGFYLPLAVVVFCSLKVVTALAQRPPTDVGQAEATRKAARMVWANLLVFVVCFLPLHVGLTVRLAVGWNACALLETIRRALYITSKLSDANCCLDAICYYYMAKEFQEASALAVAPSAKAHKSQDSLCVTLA

mouse GPR35 = mouse GPR35 (Mus musculus, UniProt Q9ES90); settings: in vitro; cited from earlier work
prostate cancer = settings: phase III clinical trial in prostate cancer, unselected patients; cited from earlier work
[2] = test system: Gr1+ cells isolated from the bone marrow of healthy mice; experiment: Transwell migration assay with recombinant proteins, Gr1+ cells; assay type: cell-based, mouse; settings: Gr1+ cells mostly Ly6G+/Ly6C^int PMN cells; increasing concentration of recombinant protein
Description: (§1) Gr1+ cells and monocytes were isolated from the bone marrow (tibias and femurs) of C57BL/6 wild type, 3 months old mice using the MACS Myltenyi Biotec Cell Isolation system according to the manufacturer's instruction. For monocytes isolation the Monocyte Isolation Kit (BM) (Miltenyi 130-100-629) was used, whereas Gr1 positive cells were isolated using the antibody Anti-Gr-1-Biotin, clone RB6-8C5 (Miltenyi 130-101-894). Red blood cells were lysed with the ACK lysis buffer (ThermoFisher Scientific A1049201). Total bone marrow cells and Gr1+ cells were cultured for 4 days. Briefly, 40 ng/ml GM-CSF (PeproTech #315-03) and 40 ng/ml IL-6 (PeproTech #216-16) were added to the control medium RPMI 1640 (ThermoFisher Scientific 11875-093), supplemented with penicillin-streptomycin, 10% FBS, 10 mM HEPES, 20 μM 2-Mercaptoethanol. Either recombinant mouse CXCL5 (BioLegend #573302) or recombinant mouse CXCL17 (BioLegend #585402) was added at the beginning of the experiment (200 nM). For the migration assay 2.5×10^5 MACS sorted cells were resuspended in 100 μL of either RPMI 1640 control medium or organoid complete medium and placed on the upper well of the transwell system (5 μm, Corning #160241). […] The migration of cells was quantified by flow cytometry, 15 seconds acquisition time, using BD LSR II flow cytometer.

[3] = test system: whole bone marrow (BM) mouse cells and Gr1+ cells isolated from the BM; experiment: 4-day culture of bone marrow and Gr1+ cells in GM-CSF, IL-6 medium plus recombinant chemokine (flow analysis, qRT-PCR); assay type: cell-based; settings: 4 days culture, GM-CSF and IL-6, recombinant chemokine 200 nM
Description: Gr1+ cells and monocytes were isolated from the bone marrow (tibias and femurs) of C57BL/6 wild type, 3 months old mice using the MACS Myltenyi Biotec Cell Isolation system according to the manufacturer's instruction. For monocytes isolation the Monocyte Isolation Kit (BM) (Miltenyi 130-100-629) was used, whereas Gr1 positive cells were isolated using the antibody Anti-Gr-1-Biotin, clone RB6-8C5 (Miltenyi 130-101-894). Red blood cells were lysed with the ACK lysis buffer (ThermoFisher Scientific A1049201). Total bone marrow cells and Gr1+ cells were cultured for 4 days. Briefly, 40 ng/ml GM-CSF (PeproTech #315-03) and 40 ng/ml IL-6 (PeproTech #216-16) were added to the control medium RPMI 1640 (ThermoFisher Scientific 11875-093), supplemented with penicillin-streptomycin, 10% FBS, 10 mM HEPES, 20 μM 2-Mercaptoethanol. Either recombinant mouse CXCL5 (BioLegend #573302) or recombinant mouse CXCL17 (BioLegend #585402) was added at the beginning of the experiment (200 nM). For the migration assay 2.5×10^5 MACS sorted cells were resuspended in 100 μL of either RPMI 1640 control medium or organoid complete medium and placed on the upper well of the transwell system (5 μm, Corning #160241). The migration assay with recombinant proteins was performed by adding to the bottom well 600 μL of RMPI1640 control medium supplemented with the indicated amount of either CXCL5 or CXCL17. The migration assay with organoid conditioned medium was performed by adding to the bottom well 600 μL of medium collected over 5 days of culture of prostate organoids with the indicated genotype. The migration of cells was quantified by flow cytometry, 15 seconds acquisition time, using BD LSR II flow cytometer.
For Flow Cytometry, spleen and lymph node single cell suspensions were prepared by mashing the tissue in 2% FBS/PBS. Tumor and control prostate tissue (from anterior lobes) single cell suspension was prepared by mincing the tumor and digestion with Collagenase Type I (Life Technologies #17018029) in 10% DMEM (GIBCO) for 1 hr at 37° C. Cell suspensions were passed through […] cell strainers to obtain single cell suspensions. Blood samples and single cell suspensions were re-suspended in 1-2 ml of ACK red cell lysis buffer (GIBCO) and lysed on ice for 1 minute. Cell suspensions were then washed in 2% FBS/PBS, centrifuged and re-suspended in 0.5-1 ml of 2% FBS/PBS. For flow cytometry, 100 μl of cell suspension was stained in a 96-well U-bottom plate and the following antibodies were used: CD45.2-Pacific Blue (BioLegend #109820), CD45.2-APC (eBioscience #17-0454-82), CD45.2-FITC (eBioscience #11-0454-85), Gr-1-FITC (eBioscience #11-5931), Gr-1-PE (eBioscience #12-5931-81), CD11b-PECy7 (eBioscience #25-0112), CD11b-FITC (eBioscience #11-0112-82), Ly6C-PE (eBioscience #12-5932-80), Ly6G-APC-Cy7 (BioLegend #127623), Ly6G-APC (BioLegend #127613), CD3-PE (eBioscience #12-0031), CD4-APC (BioLegend #100515), CD4-PE-Cy7 (eBioscience #25-0042-82), CD8-APC (BioLegend #100721), CD8-FITC (eBioscience #11-0081-85), B220-FITC (eBioscience #11-0452), CD19-PerCP-Cy5.5 (eBioscience #45-0193), F4/80-APC (eBioscience #17-4801), CD44-FITC (BD Pharmingen #561859), CD62L-APC (BioLegend #104411), CD206-PE (BioLegend #141705) and CD49f-APC (eBioscience #17-0495). All antibodies were used 1:100. To assess cell viability, cells were incubated with either DAPI or TO-PRO3 prior to FACS analysis. Foxp3 staining was done using FOXP3 Fix/Perm Buffer Set (BioLegend) and cells were stained by Foxp3-FITC antibody (eBioscience #11-5773). All staining mixtures were analyzed on a BD LSR II flow cytometer (Becton Dickinson). Resulting profiles were further processed and analyzed using the FlowJo 8.7 software.
Microarray analysis and gene set enrichment analysis on mouse tumor tissue were conducted and analyzed as previously described by Palucka, A. K. et al. (Palucka, A. K. et al. Cell 164, 1233-1247 (2016)). […]

[4] = test system: monocytes isolated from the bone marrow of healthy mice; experiment: Transwell migration assay with recombinant proteins, monocytes; assay type: cell-based, mouse; settings: increasing concentration of recombinant protein in bottom well
Description: as §1

GPR35 [5] = molecular target: T1, GPR35; settings: cited from earlier work
Target sequence in this assay (Q9HC97 whole entry, species assumed): as the sequence (Q9HC97 whole entry) above

Chain of mouse GPR35 (Q9ES90 whole entry): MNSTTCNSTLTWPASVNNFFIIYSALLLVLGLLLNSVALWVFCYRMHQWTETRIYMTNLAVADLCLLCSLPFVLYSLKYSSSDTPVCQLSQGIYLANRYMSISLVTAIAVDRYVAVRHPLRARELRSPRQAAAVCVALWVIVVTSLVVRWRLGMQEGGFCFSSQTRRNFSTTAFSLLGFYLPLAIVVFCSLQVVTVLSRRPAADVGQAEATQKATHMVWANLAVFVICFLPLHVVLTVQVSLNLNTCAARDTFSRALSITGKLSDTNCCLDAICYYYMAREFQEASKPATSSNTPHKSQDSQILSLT

Molecule: COC(=O)c1cnn(-c2ccc(F)cc2F)c1/C=N/NC(=S)NC(C)(C)C [CID2745687]
- antagonist activity at human GPR35 (GPR35 [1]): in vitro antagonist activity
- antagonist activity at mouse GPR35 (mouse GPR35): in vitro antagonist activity

Molecule: CC(/C=C1\SC(=S)N(CCCC(=O)Nc2ccc(C(=O)O)c(O)c2)C1=O)=C\c1ccccc1 [ML145]
- antagonist activity at mouse GPR35 (mouse GPR35): in vitro antagonist activity

Molecule: COc1cccc2c1c(O)c(C(=O)N(C)c1ccc(C(F)(F)F)cc1)c(=O)n2C [Tasquinimod]
- survival benefit (prostate cancer): failed to show a clear survival benefit

B1: CXCL5: recombinant mouse CXCL5 (BioLegend #573302) (protein, UniProt P50228 41-132, looked up)
C-X-C motif chemokine 5: APSSVIAATELRCVCLTVTPKINPKLIANLEVIPAGPQCPTVEVIAKLKNQKEVCLDPEAPVIKKIIQKILGSDKKKAKRNALAVERTASVQ
- migration of Gr1+ cells toward medium with recombinant protein [2]: chemoattractants for PMN
- expression of the Ly6C and Ly6G markers (flow analysis) [3]: did not observe any significant difference
- expression profile of the genes tested (qRT-PCR) [3]: did not observe any significant difference
- expression of the Ly6C and Ly6G markers (flow analysis) ([3]; listed as recombinant CXCL5): did not show significant changes

B2: CXCL17: recombinant mouse CXCL17 (BioLegend #585402); chemokine ligand of GPR35 (protein, UniProt Q5UW37 23-119, looked up)
C-X-C motif chemokine 17: SPNPGVARSHGDQHLAPRRWLLEGGQECECKDWFLQAPKRKATAVLGPPRKQCPCDHVKGREKKNRHQKHHRKSQRPSRACQQFLKRCHLASFALPL
- migration of monocytes toward medium with recombinant protein [4]: concentration-dependent effect
- migration of Gr1+ cells toward medium with recombinant protein [2]: only on monocytes
- expression of the Ly6C and Ly6G markers (flow analysis) [3]: did not observe any significant difference
- expression profile of the genes tested (qRT-PCR) [3]: did not observe any significant difference
- expression of the Ly6C and Ly6G markers (flow analysis) ([3]; listed as recombinant CXCL17): did not show significant changes
- concentration range of GPR35-CXCL17 mediated functional responses (GPR35 [5]): ~50 nM
